Positions count from the first letter of the chain named. “Also recorded” adds a separate entry of the source.

In data set [1] the target is T1, FAP (Homo sapiens, UniProt Q12884).
T1 sequence (Q12884 1-760): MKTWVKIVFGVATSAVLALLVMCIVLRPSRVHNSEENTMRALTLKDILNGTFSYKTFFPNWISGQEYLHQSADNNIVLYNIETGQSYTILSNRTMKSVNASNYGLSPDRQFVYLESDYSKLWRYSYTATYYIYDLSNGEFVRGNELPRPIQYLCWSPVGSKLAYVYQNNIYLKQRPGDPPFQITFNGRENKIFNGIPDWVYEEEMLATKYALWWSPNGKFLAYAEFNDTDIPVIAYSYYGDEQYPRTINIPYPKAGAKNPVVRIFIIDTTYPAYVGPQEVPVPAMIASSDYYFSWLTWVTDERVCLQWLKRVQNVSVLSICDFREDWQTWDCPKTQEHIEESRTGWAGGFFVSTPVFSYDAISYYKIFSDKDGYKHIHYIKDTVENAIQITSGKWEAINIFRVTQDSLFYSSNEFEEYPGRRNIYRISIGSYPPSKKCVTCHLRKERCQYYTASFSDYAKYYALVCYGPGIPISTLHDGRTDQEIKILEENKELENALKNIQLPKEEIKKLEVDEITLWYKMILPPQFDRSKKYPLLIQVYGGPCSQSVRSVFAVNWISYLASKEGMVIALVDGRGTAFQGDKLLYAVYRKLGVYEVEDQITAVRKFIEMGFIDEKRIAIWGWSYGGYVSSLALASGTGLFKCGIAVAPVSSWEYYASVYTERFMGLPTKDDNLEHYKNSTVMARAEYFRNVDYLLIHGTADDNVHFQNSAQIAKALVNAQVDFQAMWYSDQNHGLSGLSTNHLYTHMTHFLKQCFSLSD
To be noted: cited from earlier work.

The next data set deals with T2, CD26 (Homo sapiens, UniProt P27487).
T2 construct: expressed in transfected cells; host or cells: HEK293 c-18 (ATCC CRL-10852), pEAK 8 vector; cell lysate coated on the plate
Nature of the data set: Binding specificity by ELISA on cell lysates, CD26. To be noted: HEK293 huCD26+ lysates. The protocol: FIG. 3: Specificity of Fabs ESC11 and ESC14. A. ELISA of Fabs (100 nM) binding to cell-lysate-coated plates. HT1080 FAP^+ (black bars), HT1080 (white bars), HEK293 huCD26^+ (striped bars), HEK293 muFAP^+ (grey bars), HEK293 mock transfected line (hatched bars). B. FACS analysis of Fab ESC11 (black line), ESC14 (grey line), and a non-binding control Fab (filled) on HT1080 FAP^+ cells (left) and 293 muFAP^+ cells (right)
Screening of Supernatants by ELISA and Flow Cytometry.
Supernatants of the output libraries after each selection round, and supernatants of individual bacterial clones after rounds three, four, and five were screened for FAP-binding phage by ELISA. Ninety-six-well microtiter plates (MAXISORP® Nunc) were coated with cell extracts cell extracts from HEK293 huFAP, HEK293 huCD26, HEK293 muFAP, or mock-transfected HEK293, blocked with 5% milk powder in PBS, incubated with phage-containing supernatants for 1 hr at room temperature and developed using an anti-M13-HRP conjugated antibody. […] Bound Fab antibody was detected with anti-myc tag antibody 9E10, followed by an anti-mouse immunoglobulin-PE conjugate. For competition assays, Fab antibodies were detected using biotinylated anti-myc tag 9E10, followed by strep-PE.
A general note: An ELISA detects its analyte on a solid surface through an enzyme-linked reagent.

Data set [2] concerns the target T3, dipeptidylpeptidase activity of FAP (Homo sapiens, UniProt Q12884).
T3 construct: native FAP expressed on human AF; endogenous in cells
T3 sequence (Q12884 1-760): T1 sequence (Q12884 1-760)
The data set is described as follows: Fluorogenic dipeptidyl peptidase activity assay (Ala-Pro-AFC). It is filed as biochemical. To be noted: 30 μg/ml IgGs added to extracts of human AF; Ala-Pro-AFC substrate.
Experimental: Fluorogenic Dipeptidyl Peptidase Activity Assay.
The diluted extracts were incubated with 0.5 mM Ala-Pro-AFC in 96-well plates at 37° C. and release of free AFC was monitored over time on a fluorescence reader (Victor Wallac, Perkin Elmer), using a 395 nm excitation/530 nm emission filter set. Dipeptidyl peptidase activity was determined from the slope of the fluorescence readings, after subtraction of background activity from a FAP negative sample.

The next data set concerns FAP-expressing cells. The data set is described as follows: Attachment assay to ECM proteins. The format is cell-based. To be noted: antibodies 10 ug/ml, 30 min preincubation. The protocol: Ninety-six-well microtiter plates (MAXISORP®, Nunc) were coated with indicated proteins at a concentration of 50 ug/ml and incubated over night at 4° C. Plates were washed three times with PBS and then blocked with 1% BSA for 60 min at 37° C. Cells were preincubated for 30 min with indicated antibodies at a final concentration of 10 ug/ml and then added to the coated plates. After 60 min, plates were washed with PBS to remove non adherent cells. Attached cells were stained using cristal violet and lysed by addition of Isopropanol with 0.4M HCl at a final volume of 75 ul/well. OD560 was measured on a ELISA reader.

Data set [3] deals with HEK293 cells stably transfected with mouse FAP. The data set is described as follows: Detection of apoptotic cells by Annexin V staining, FAP-transfected cells. The format is cell-based.
Data set [4] relates to mock-transfected Hek293 cells. Nature of the data set: Detection of apoptotic cells by Annexin V staining, mock-transfected cells. The format is cell-based. The protocol:
Detection of Apoptotic Cells by Annexin V Staining.
FAP- and mock-transfected Hek293 cells were incubated in DMEM supplemented with 10% FBS in the presence of indicated amount of antibodies at RT. Control samples were either incubated in the absence of antibodies or at 4° C. in the presence of antibodies. After 60 min, cells were washed and stained with Propidium Iodide (Sigma) and Annexin V (Roche) following the manufacturer's instructions and the percentage of apoptosis was determined using flow cytometry.

In data set [5] the target is T1, FAP. Nature of the data set: Antibody mediated down-regulation of FAP expression. It is filed as cell-based. Also on record: expressed in transfected cells; host or cells: HT1080 (FAP-transfected). Particulars: FAP-transfected tumor cell lines (HT1080FAP), over night incubation, F19 staining. The protocol:
For detection of loss of FAP expression, sub-confluent HT1080FAP cultures were trypsinized, washed with PBS and resuspended in RPMI, 10% FBS at 5×10^5 cells and 0.5 ml per well seeded in 12 well cell culture plates and the indicated concentration of ESCHIgG was added. After over night incubation, cells were trypsinized washed and stained with 10 ug/ml F19 followed by FITC-conjugated polyclonal goat anti-mouse. Fluorescence intensity of the cells was analyzed by flow cytometry. % FAP expression was calculated (100/(signal 0 ug/ml ESC11IgG−background signal))*(signal with ESC11IgG−backgroundsignal). One representative of three independent experiments is shown.

Data set [6] deals with T1, FAP. The data set is described as follows: Competition assay on HT1080hFAP cells by flow cytometry. The format is binding. Also on record: expressed in transfected cells; host or cells: HT1080 (FAP-transfected). Particulars: IgG at 5 ug/ml before ESC11/ESC14 Fab fragments; HT1080FAP cells, 4° C. As to the method:
For measuring the competitive binding of ESC11 and ESC14, Fab fragments were titered on HT1080hFAP cells and binding was determined by flow cytometry. The concentration resulting in 90% of the maximal binding was used for the competition assay. HT1080FAP were incubated with the indicated antibodies at 5 ug/ml for 20 min at 4° C., then the ESC11-/ESC14 Fab fragments or PBS added at the pre-determined concentrations and incubated for 20 min at 4° C. Cells were washed once with PBS at 4° C. and fixed with 2% PFA on ice. Bound Fab fragment was detected by the myc-tag with biotinylated anti-myc and PE conjugated streptavidin. Cells were then analyzed by flow cytometry as described.
(In general: In flow cytometry, cells or beads pass a laser one at a time.)

A further data set deals with HT1080FAP cells. The data set is described as follows: Internalization of FAP-antibody complexes by fluorescence microscopy. The format is cell-based. To be noted: DyLight 488 labelled antibody, 37° C., two hours, acidic wash. As to the method: HT1080FAP cells were incubated with fluorescence labelled anti-FAP antibody Esc11 DYLIGHT® […] (flurorochrome conjugated antibody, ThermoScientific). […] When cells were warmed up to 37° C., rapid internalisation of FAP-Esc11 complexes could be detected with cytoplasmatic spots and vesicular accummulation (FIG. 11B).
Methods: HT1080FAP were grown on fibronectin coated glas slides over night. The cells were then treated with DYLIGHT® (Thermo Scientific) labeled ESC11IgG at either 4° C. or 37° C. for indicated time points. The cover slides were then mounted with flouromount for fluorescence microscopy. ESC11 DYLIGHT® 488 was detected at extention wavelaength of 488 nm and an emission of 518 nm. The results are depicted in FIG. 11.

T2 sequence (P27487 whole entry): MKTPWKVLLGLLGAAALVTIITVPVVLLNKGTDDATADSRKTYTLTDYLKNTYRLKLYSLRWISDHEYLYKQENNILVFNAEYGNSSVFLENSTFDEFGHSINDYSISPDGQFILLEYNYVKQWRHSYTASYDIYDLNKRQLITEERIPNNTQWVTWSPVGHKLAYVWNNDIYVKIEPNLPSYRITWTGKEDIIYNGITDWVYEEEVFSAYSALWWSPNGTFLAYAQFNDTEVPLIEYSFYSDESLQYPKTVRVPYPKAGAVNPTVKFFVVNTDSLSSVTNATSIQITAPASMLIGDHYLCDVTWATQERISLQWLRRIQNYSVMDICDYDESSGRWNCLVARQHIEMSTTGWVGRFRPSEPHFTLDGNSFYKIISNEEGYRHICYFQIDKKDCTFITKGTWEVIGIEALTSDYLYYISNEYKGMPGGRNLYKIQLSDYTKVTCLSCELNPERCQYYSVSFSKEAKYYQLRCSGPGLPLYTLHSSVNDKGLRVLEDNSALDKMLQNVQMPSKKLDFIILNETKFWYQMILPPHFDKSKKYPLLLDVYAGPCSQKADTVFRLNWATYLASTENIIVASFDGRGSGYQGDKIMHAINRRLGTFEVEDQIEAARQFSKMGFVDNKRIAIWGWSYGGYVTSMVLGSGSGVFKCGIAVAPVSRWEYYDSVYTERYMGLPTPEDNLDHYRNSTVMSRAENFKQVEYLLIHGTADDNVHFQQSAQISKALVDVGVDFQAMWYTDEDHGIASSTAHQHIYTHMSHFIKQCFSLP

Regarding Sibrotuzumab: humanized version of F19, the Safety and tolerability result with FAP [1] (patients, phase I and phase II trials) was “safe and well tolerated”. In addition, in the data set with FAP [1] (trace-labelling with ^131I, imaging analysis), the “Accumulation at the tumor area” value is on record as “specific accumulation”. In addition, the “Anti-tumor or therapeutic activity” value in the data set with FAP [1] (unconjugated antibody, patients) is on record as “no anti-tumor or any therapeutic activity”.

B1: ESC14: anti-FAP antibody clone ESC14, format (Fab or IgG) given by the context of the place (antibody, V domains shown)
VH: EVQLVQSGAEVKKPGASVKVSCKASGYTFTSYGISWVRQAPGQGLEWMGWISAYNGNTNYAQKLQGRVTMTTDTSTSTAYMELRSLRSDDTAVYYCARDWSRSGYYLPDYWGQGTLVTVSS
VL: DVVMTQSPLSLPVTLGQPASISCRSSQSLLHSNGYNYLDWYLQRPGQSPHLLIFLGSNRASGVPDRFSGSGSGTDFTLKISRVEAEDVGIYYCMQALQTPPTFGQGTKVEIK
In the case of B1, in the data set with CD26, the “Cross-reaction with CD26” value was “no binding”. For the same molecule, in data set [2], the “Effect on DPP (protease) activity of FAP” value is given as “no direct influence”. The “Attachment of FAP-expressing cells to ECM proteins (matrigel, type I collagen)” value with FAP-expressing cells is “significant inhibition”. Further, the “Induction of apoptosis in the cold” value in [3] (4° C.) is “could not be induced”. Moreover, the Induction of apoptosis result in [3] (HEK293 stably transfected with mouse FAP, RT, 60 min, Annexin V) is on record as “underwent apoptosis; also recorded: Induction of apoptosis”. Further, the “Induction of apoptosis in mock-transfected cells” value in data set [4] is “not altered at all”. For the same molecule, the “Down-regulation of FAP expression” value with FAP [5] was “rapid FAP down-regulation”.

B2: ESC14 Fab fragment: fully human anti-FAP Fab from phage library; VH SEQ ID NO: 7, VL SEQ ID NO: 8 (antibody, listed as Homo sapiens, V domains shown)
VH: B1 VH
VL: B1 VL
With B2, the “Down-regulation of FAP expression” value with FAP [5] is given as “could not been observed”.

B3: ESC14 IgG1: ESC14 variable domains cloned into a full human IgG1 format (antibody, V domains shown)
VH: B1 VH
VL: B1 VL
On to B3, for which the “Competition for FAP binding” value with FAP [6] is reported as “cross-inhibition”. Moreover, the “Down-regulation of FAP expression” value in the data set with FAP [5] is recorded as “down-regulation of FAP expression; also recorded: dose-dependent reduction of FAP”.

B4: ESC11 IgG1: ESC11 variable domains in full human IgG1 format; heavy chain H to Q at position 1 (SEQ ID NO: 2) (antibody, V domains shown)
VH: QVQLQESGPGLVKPSETLSLTCTVSGGSISSNNYYWGWIRQTPGKGLEWIGSIYYSGSTNYNPSLKSRVTISVDTSKNQFSLKLSSVTAADTAVYYCARGARWQARPATRIDGVAFDIWGQGTMVTVSS
VL: ETTLTQSPGTLSLSPGERATLSCRASQTVTRNYLAWYQQKPGQAPRLLMYGASNRAAGVPDRFSGSGSGTDFTLTISRLEPEDFAVYYCQQFGSPYTFGQGTKVEIK
For the molecule B4, in the data set on HT1080FAP cells, the “Internalisation of FAP-antibody complexes” value is “most of the antibody had internalized”. Further, the “Competition for FAP binding” value in the data set with FAP [6] was “cross-inhibition”. In the data set with FAP [5], the “Down-regulation of FAP expression” value is “down-regulation of FAP expression; also recorded: dose-dependent reduction of FAP”.

B5: ESC11 Fab fragment: fully human anti-FAP Fab from phage library; VH SEQ ID NO: 1, VL SEQ ID NO: 3 (antibody, listed as Homo sapiens, V domains shown)
VH: B4 VH with Q1H
VL: B4 VL
On to B5, for which the “Down-regulation of FAP expression” value with FAP [5] is “could not been observed”.

Source of the values: US8999342B2, “Anti-fibroblast activation protein antibodies and methods and uses thereof” (Ludwig Institute for Cancer Research, Ltd., priority 2009, dated 2015).
